B1: Thp2p with C-terminal 6xHis tag (isolated protein) (natural protein, Saccharomyces cerevisiae, UniProt O13539 1-261, looked up)
chain: MTKEEGRTYFESLCEEEQSLQESQTHLLNILDILSVLADPRSSDDLLTESLKKLPDLHRELINSSIRLRYDKYQTREAQLLEDTKTGRDVAAGVQNPKSISEYYSTFEHLNRDTLRYINLLKRLSVDLAKQVEVSDPSVTVYEMDKWVPSEKLQGILEQYCAPDTDIRGVDAQIKNYLDQIKMARAKFGLENKYSLKERLSTLTKELNHWRKEWDDIEMLMFGDDAHSMKKMIQKIDSLKSEINAPSESYPVDKEGDIVLE
notes: Thp2p, Saccharomyces cerevisiae; pET-30 Ek/LIC vector; purified without TEV cleavage; also called isolated Thp2p; source: E. coli Rosetta (DE3), purified (Ni-NTA, Source 15Q, Superdex 200); not shown: 6xHis, C-terminal, kept
B2: Mft1pΔC336-392 with C-terminal 6xHis tag (isolated protein) (domain or fragment, Saccharomyces cerevisiae, UniProt P33441 1-335, looked up)
chain: MPLSQKQIDQVRTKVHYSEVDTPFNKYLDILGKVTKLTGSIINGTLSNDDSKIEKLTEQNISQLKESAHLRFLDLQSSIDTKKVADENWETCQQETLAKLENLKDKLPDIKSIHSKLLLRIGKLQGLYDSVQVINREVEGLSEGRTSLVVTRAEWEKELGTDLVKFLIEKNYLKLVDPGLKKDSSEERYRIYDDFSKGPKELESINASMKSDIENVRQEVSSYKEKWLRDAEIFGKITSIFKEELLKRDGLLNEAEGDNIDEDYESDEDEERKERFKRQRSMVEVNTIENVDEKEESDHEYDDQEDEENEEEDDMEVDVEDIKEDNEVDGESSQQ
notes: pET-30 Ek/LIC vector; purified without TEV cleavage; also called isolated Mft1p; source: E. coli Rosetta (DE3), purified (Ni-NTA, Source 15Q, Superdex 200); not shown: 6xHis, C-terminal, kept

Target: the molecule itself
Experiment: SAXS; purified proteins or co-expressed, co-purified complexes in solution; 50 mM Tris-Cl pH 8.0, 100 mM KCl, 5 mM MgCl2, 5 mM 2-mercaptoethanol; 10°C or 25°C; 3-6 concentrations between 7.8 and 0.15 mg/ml; homodimers told from measurements at low concentrations

Protein | stoichiometry N
B1 | 2
B2 | 2

Reference: article PMC4111604, “Structural Characterization of the Saccharomyces cerevisiae THO Complex by Small-Angle X-Ray Scattering” (PLoS ONE, 2014)
